Patent US6514698
Read-outs that look alike come from different tables or passages of the source.

Assays:
[1] = test system: M.CviRI DNA methyltransferase
[2] = molecular target: T1, M.BamHI DNA methyltransferase (UniProt P23941)
T1 sequence: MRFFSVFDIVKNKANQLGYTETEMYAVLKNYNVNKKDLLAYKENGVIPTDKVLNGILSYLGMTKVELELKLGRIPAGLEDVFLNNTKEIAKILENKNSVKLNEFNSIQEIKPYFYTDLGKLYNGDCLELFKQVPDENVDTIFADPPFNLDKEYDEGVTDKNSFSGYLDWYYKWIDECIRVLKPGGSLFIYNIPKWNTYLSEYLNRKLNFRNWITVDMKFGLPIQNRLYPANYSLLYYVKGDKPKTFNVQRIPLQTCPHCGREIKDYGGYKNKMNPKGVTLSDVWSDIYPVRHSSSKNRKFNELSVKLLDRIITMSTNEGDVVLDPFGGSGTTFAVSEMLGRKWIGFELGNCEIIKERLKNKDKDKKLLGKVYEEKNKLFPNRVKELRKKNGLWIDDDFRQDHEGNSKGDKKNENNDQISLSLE

[3] = molecular target: T2, M.EcoRI DNA methyltransferase (UniProt P00472)
T2 sequence: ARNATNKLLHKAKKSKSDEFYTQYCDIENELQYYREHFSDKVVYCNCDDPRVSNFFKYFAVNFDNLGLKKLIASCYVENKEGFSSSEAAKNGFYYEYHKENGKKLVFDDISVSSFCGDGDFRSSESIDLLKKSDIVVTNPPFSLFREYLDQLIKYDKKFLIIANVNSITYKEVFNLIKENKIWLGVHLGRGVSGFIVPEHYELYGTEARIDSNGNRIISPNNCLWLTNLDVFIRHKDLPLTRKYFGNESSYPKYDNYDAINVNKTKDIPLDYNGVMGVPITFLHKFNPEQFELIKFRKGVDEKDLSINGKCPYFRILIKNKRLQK

[4] = molecular target: M.HaeIII DNA methyltransferase (UniProt P20589); conditions: background 615
[5] = 3H-methyl-SAM, 23 C, 5 mM EDTA, no MTase 574

GGTGGGAGAAGAAGATAAAAAGTAACATCTTTCTGCCTTCCAGATGATTCGAAGAATTTCTCCATCCAAGTGCGGCAGGTGGAGGATTGCCCTGTGGACATCTACTACTTGATGGACCTGTCTTACTCCATGCCGGATGATCTGTGGAGCATCCAGAACCTGGGTACCAAGCTGGCCACCCAGATGCGAAAGCTCACCAGTAACCTGCGGATTGGCTTCGGGGCATTTGTGGACAAGCCTGTGTCACCATACATGTATATCTCCCCACCAGAGGCCCTCGAAAACCCCTGCTATGAGTAAGTCCCTCCTCCAGACGCCAGGACAGCATCCTTTGCCCAGGAAGGTCCAAGTCCTGGTTCCTA (double strand) [GPIIIa Yuka/a 362 bp amplicon]
activity ([1]; background 472): 506 cpm

GGTGGGAGAAGAAGATAAAAAGTAACATCTTTCTGCCTTCCAGATGATTCGAAGAATTTCTCCATCCAAGTGCGGCAGGTGGAGGATTGCCCTGTGGACATCTACTACTTGATGGACCTGTCTTACTCCATGCCGGATGATCTGTGGAGCATCCAGAACCTGGGTACCAAGCTGGCCACCCAGATGCGAAAGCTCACCAGTAACCTGCGGATTGGCTTCGGGGCATTTGTGGACAAGCCTGTGTCACCATACATGTATATCTCCCCACCAGAGGCCCTCGAAAACCCCTGCTATGAGTAAGTCCCTCCTCCAGACGCCAGGACAGCATCCTTTGCCCAGGAAGGTCCAAGTCCTGGTTCCTA (double strand) [GPIIIa Yukb/b 362 bp amplicon]
activity ([1]; 3H-methyl-SAM, 23 C, 5 mM EDTA, background 501): 12200 cpm

pBluescript 191 bp amplicon predigested with BamHI
activity ([2]; site cleaved, background 661): 999 cpm | activity ([3]; background 661): 32800 cpm

pBluescript 191 bp amplicon predigested with EcoRI
activity ([2]; background 750, nearby frayed EcoRI end interferes): 1310 cpm | activity ([3]; site cleaved, background 750): 770 cpm

pBluescript SK+ polylinker 191 bp amplicon
activity [2, 5]: 69700 cpm | activity [3, 5]: 85000 cpm

pUC19
activity ([1]; background 615): 118000 cpm | activity [4]: 26200 cpm
